Experimental data taken from patent US20240279357A1 (THERINI BIO, published 2024).
Changes are numbered by the printed parent chain. Numbers in names are those of the source. Values belong to the molecule of their own block, whether it stands above or below them.

Columns and labels:
[1] = target: plasminogen-depleted human Fibrinogen (EMD/Calbiochem) (human) (UniProt P02671); test: ELISA on plate-coated human fibrinogen, antibody titrated, A450
[2] = target: T1, P2 peptide comprising SEQ ID NO: 31 (human fibrin γ377-395) (human); test: ELISA on coated P2 peptide
T1 construct: Bought (CPC Scientific 920712); also called human P2 peptide
T1 peptide: YSMKKTTMKIIPFNRLTIG
Experimental: (§1) The humanized antibodies affinity for fibrinogen, fibrin and P2 peptide were assessed by Enzyme-linked immunosorbent assays (ELISA)s (FIGS. 7-16). ELISAs for fibrinogen binding were performed using plasminogen-depleted human Fibrinogen (EMD/Calbiochem). […] IgG1-depleted Fibrinogen (FGN) in 20 mM HEPES/Saline buffer was added to each well of half of a 96-well Nunc Maxisorp™ ELISA plate. The ELISAs for fibrin binding were prepared by adding 50 mL of 20 mM HEPES/Saline buffer containing 14 mM CaCl₂, and 2 units thrombin to each well of the second half of the Nunc Maxisorp™ ELISA plate. 50 mL of 20 mg fibrinogen in 20 mM HEPES/Saline buffer were then added to a total volume of 100 mL. Plates were placed in a 37° C. incubator for 1 hour to allow fibrinogen to clot into fibrin and subsequently placed overnight into a plate dryer at 37° C. overnight. The ELISAs for P2 peptide were prepared by addition of […] of 30 mM P2 peptide in 20 mM HEPES/Saline buffer to each well of a 96-well Nunc Maxisorp™ ELISA plate. Plates were transferred to the plate dryer and dried overnight at 37° C. All ELISAs were preformed using Nunc MaxiSorp 96-well ELISA plates. Blocking was performed using 100 mL 5% BSA in DPBS are incubated at RT for 1 hour. Plates were washed 5× in DPBS containing 0.05% Tween-20 (EL406 was used for the addition of wash buffer only). 50 mL of primary antibodies was diluted in 0.5% BSA in DPBS, and the primary antibodies were added to the plates and incubated for 2 hours at 37° C. Plates were washed 5× in DPBS/Tween. 100 mL secondary antibodies were diluted in 0.5% BSA in DPBS. The secondary antibodies were then added to the plates and incubated for 1 hour at RT. Afterwards, plates were washed 5× in DPBS/Tween. 100 mL of TMB/E substrate solution was added, and the reaction was stopped after 5 minutes with 1N HCl.

[3] = target: T2, human Fibrin (human fibrinogen clotted on the plate with thrombin and CaCl2) (human, UniProt P02671 36-629; P02675 45-491; P02679 27-437); test: ELISA on human fibrin formed on the plate
T2 construct: Made in the ELISA wells from the human fibrinogen by thrombin and CaCl2, 1 hour at 37 C, then dried
T2 sequence (looked up) 1: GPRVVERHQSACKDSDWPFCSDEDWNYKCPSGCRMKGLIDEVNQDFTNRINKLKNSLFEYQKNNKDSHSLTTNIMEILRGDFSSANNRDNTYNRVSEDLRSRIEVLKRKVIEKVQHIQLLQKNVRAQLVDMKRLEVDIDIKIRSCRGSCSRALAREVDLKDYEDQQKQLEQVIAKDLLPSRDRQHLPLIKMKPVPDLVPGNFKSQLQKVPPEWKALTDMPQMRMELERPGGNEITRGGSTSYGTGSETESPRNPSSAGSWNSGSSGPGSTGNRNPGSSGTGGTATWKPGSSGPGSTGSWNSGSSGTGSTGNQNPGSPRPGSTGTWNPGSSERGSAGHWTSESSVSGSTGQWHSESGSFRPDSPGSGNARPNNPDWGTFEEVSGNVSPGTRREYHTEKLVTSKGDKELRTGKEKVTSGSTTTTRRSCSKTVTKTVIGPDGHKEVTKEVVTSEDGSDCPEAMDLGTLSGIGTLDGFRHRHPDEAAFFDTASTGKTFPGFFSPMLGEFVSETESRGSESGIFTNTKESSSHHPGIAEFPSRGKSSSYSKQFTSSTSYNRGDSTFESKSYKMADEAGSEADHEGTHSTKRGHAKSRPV
T2 sequence (looked up) 2: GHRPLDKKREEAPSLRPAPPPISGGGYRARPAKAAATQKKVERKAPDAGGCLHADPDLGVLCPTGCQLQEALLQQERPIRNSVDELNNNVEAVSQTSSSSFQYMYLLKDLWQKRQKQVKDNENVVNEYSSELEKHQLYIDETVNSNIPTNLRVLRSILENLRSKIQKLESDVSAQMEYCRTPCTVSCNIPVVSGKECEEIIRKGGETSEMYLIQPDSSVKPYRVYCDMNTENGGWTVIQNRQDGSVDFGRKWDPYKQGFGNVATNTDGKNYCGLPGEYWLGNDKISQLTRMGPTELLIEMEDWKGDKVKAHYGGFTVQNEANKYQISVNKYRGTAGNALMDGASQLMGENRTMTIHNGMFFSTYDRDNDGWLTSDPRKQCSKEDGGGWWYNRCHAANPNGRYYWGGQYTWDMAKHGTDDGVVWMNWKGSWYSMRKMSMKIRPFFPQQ
T2 sequence (looked up) 3: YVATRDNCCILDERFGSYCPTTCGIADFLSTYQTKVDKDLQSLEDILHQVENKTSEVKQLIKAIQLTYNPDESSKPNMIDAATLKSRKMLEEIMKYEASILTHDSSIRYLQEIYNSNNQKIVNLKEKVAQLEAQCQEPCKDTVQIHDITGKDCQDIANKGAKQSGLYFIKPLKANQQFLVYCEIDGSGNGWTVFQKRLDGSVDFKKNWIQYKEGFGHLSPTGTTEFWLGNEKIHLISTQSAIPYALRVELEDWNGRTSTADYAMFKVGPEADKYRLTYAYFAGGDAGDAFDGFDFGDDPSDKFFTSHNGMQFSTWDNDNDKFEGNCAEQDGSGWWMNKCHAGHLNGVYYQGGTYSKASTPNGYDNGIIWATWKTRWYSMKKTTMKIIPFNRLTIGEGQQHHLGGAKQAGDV
Experimental: as §1

[4] = target: T1, P2 peptide comprising SEQ ID NO: 31 …; test: ELISA on plate-coated human P2 peptide, antibody titrated, A450
Experimental: as §1, with “50 mL of primary antibodies was diluted in 0.5% BSA in DPBS, and the primary antibodies were added to the plates and incubated for 2 hours at 37° C. Plates were washed 5× in DPBS/Tween. 100 mL secondary antibodies were diluted in 0.5% BSA in DPBS. The secondary antibodies were then added to the plates and incubated for 1 hour at RT. Afterwards, plates were washed 5× in DPBS/Tween. 100 mL of TMB/E substrate solution was added, and the reaction was stopped after 5 minutes with 1N HCl.” left out

[5] = target: T2, human Fibrin (human fibrinogen clotted …); test: ELISA on plate-coated human fibrin (fibrinogen clotted in the well with thrombin/CaCl2), antibody titrated, A450
Experimental: as §1, with “50 mL of primary antibodies was diluted in 0.5% BSA in DPBS, and the primary antibodies were added to the plates and incubated for 2 hours at 37° C. Plates were washed 5× in DPBS/Tween. 100 mL secondary antibodies were diluted in 0.5% BSA in DPBS. The secondary antibodies were then added to the plates and incubated for 1 hour at RT. Afterwards, plates were washed 5× in DPBS/Tween. 100 mL of TMB/E substrate solution was added, and the reaction was stopped after 5 minutes with 1N HCl.” left out

[6] = target: T3, plasminogen-depleted human Fibrinogen (EMD/Calbiochem) (human, UniProt P02671 20-629; P02675 31-491; P02679 27-437, limits assumed); test: ELISA on coated human fibrinogen; curve did not reach saturation
T3 construct: Bought protein, IgG-depleted, coated on ELISA plates; also called FGN
T3 sequence (looked up) 1: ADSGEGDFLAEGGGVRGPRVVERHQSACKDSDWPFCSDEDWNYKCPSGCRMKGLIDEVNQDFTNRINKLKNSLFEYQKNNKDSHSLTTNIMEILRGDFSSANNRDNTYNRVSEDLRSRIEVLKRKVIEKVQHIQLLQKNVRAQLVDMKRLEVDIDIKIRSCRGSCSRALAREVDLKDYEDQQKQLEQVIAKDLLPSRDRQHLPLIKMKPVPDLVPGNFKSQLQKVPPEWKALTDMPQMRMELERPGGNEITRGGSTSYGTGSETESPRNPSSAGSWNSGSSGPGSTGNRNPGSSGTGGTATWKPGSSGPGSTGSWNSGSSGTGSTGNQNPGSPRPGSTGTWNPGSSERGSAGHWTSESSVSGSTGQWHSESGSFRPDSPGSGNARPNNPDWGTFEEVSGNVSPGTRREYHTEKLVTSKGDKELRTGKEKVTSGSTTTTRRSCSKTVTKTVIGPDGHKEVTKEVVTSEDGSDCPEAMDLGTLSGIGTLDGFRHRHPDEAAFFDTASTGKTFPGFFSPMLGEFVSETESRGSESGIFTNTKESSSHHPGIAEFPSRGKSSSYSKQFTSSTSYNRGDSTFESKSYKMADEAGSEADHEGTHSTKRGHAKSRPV
T3 sequence (looked up) 2: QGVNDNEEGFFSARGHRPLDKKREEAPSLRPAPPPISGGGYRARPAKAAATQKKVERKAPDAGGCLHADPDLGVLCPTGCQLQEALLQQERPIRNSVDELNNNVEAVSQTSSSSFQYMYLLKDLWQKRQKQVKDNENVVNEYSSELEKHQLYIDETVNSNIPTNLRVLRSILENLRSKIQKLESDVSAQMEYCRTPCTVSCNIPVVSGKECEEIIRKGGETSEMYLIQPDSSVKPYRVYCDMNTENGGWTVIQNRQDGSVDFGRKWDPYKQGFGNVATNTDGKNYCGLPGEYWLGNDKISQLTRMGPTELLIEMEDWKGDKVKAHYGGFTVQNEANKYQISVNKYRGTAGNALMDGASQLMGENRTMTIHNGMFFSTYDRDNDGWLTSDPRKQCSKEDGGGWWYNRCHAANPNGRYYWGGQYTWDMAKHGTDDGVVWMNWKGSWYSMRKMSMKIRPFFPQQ
T3 sequence (looked up) 3: T2 sequence (looked up) 3
Experimental: as §1

[7] = target: T1, P2 peptide comprising SEQ ID NO: 31 …; test: SPR (Biacore) single cycle, steady state affinity; IgG from HEK supernatant captured, γ377-395 peptide analyte

- EC50 [1]: 1840 nM
Molecule: mouse IgG2b isotype control (antibody)

- EC50 [2]: ~29 nM
- EC50 [3]: ~82.6 nM
- EC50 (read off the curve) [4]: ~30 nM
- EC50 (read off the curve) [5]: ~80 nM
- EC50 [6]: ~1600 nM
B1: mouse monoclonal anti-fibrin antibody 5B8 (antibody, V domains shown)
VH: QVQLQQPGAELVRPGTSVKLSCKASGYTFTSYWIHWVKQRPGQGLEWIGLIDPSDSYTNYNQKFRGKATLTVDTSSSTAYMQLSSLTSEDSAVYYCASSDPTGCWGQGTTLTVSP
VL: DIVMTQAAFSNPITLGTSASMSCRSSKSLLHSSGITYLSWYLQKPGQSPQLLIYQMSNLASGVPDRFSSSGSGTDFTLRISRVEAEDVGVYYCAQNLELPLTFGAGTKLELK
notes: also called murine 5B8; Murine 5B8 (from client)

- Kd [7]: 39000 nM
- Relative KD [7]: 0.5 fold against VH5/VK2
B2: humanized anti-fibrin antibody variant VH5 C102G/VK2 (antibody, IgG1, V domains shown)
VH: QVQLVQSGAEVKKPGSSVKVSCKASGYTFTSYWIHWVRQAPGQGLEWIGLIDPSDSYTNYNQKFRGRVTITRDTSTSTAYMELSSLRSEDTAVYYCASSDPTGGWGQGTTVTVSS
VL: B1 VL with I13V, L15P, S18P, M21I, R79K, A105Q, L111I
notes: IgG1, tested from HEK supernatant in the SPR assay; also called VH5 C102G/Vκ2; VH5-102G

- Kd [7]: 110000 nM
- Relative KD [7]: 1.33 fold against VH5/VK2
B3: VH5 C102S/VK2 (antibody, IgG1, V domains shown)
VH: B2 VH with G104S
VL: B1 VL with I13V, L15P, S18P, M21I, R79K, A105Q, L111I
notes: IgG1, tested from HEK supernatant

- Kd [7]: 140000 nM
- Relative KD [7]: 1.77 fold against VH5/VK2
B4: VH5 C102L/VK2 (antibody, IgG1, V domains shown)
VH: B2 VH with G104L
VL: B1 VL with I13V, L15P, S18P, M21I, R79K, A105Q, L111I
notes: IgG1, tested from HEK supernatant; also called VH5-102L

- Kd [7]: 44000 nM
- Relative KD [7]: 0.56 fold against VH5/VK2
B5: VH5 C102V/VK2 (antibody, IgG1, V domains shown)
VH: B2 VH with G104V
VL: B1 VL with I13V, L15P, S18P, M21I, R79K, A105Q, L111I
notes: IgG1, tested from HEK supernatant; also called VH5-102V
